Assay [1] deals with T1, fusion protein DBD-mdm2 (GAL4 DBD fused to the entire Mdm2 human protein) (Saccharomyces cerevisiae; human, UniProt P04386 1-147; Q00987 1-491, limits assumed).
T1 construct: also called pDBT-mdm2
Briefly: yeast two-hybrid control (pTAL20+pDBT-mdm2), URA3 reporter in strain Y187.
Protocol: (§1) The activity of the constructs is first verified (FIGS. 6A and 6F). […] Two clones of each of these transformants are cultured on minimum medium with and without uracil ((FIGS. 6A and 6F).

Assay [2] deals with T2, DNA-binding domain (DBD) of GAL4p expressed alone from pDBT (Saccharomyces cerevisiae, UniProt P04386 1-147, limits assumed).
T2 construct: Negative control partner
Briefly: reverse two-hybrid UI strain yRB49; growth not affected on medium with 1 mM 3-AT.

The target in assay [3] is T2, DNA-binding domain (DBD) of GAL4p …. The assay can be described thus: yeast two-hybrid control (pRB34+pDBT), URA3 reporter in strain Y187.
Protocol: as §1
Firstly, the activity of the constructs was verified. […] Two clones cotransformed by each of these pairs of plasmids are selected. Their capacity to grow on minimum medium with and without uracil is studied.

B1: activation domain (AD) of GAL4p expressed alone from pTAL20 (other, Saccharomyces cerevisiae, UniProt P04386 768-881, looked up)
chain: ANFNQSGNIADSSLSFTFTNSSNGPNLITTQTNSQALSQPIASSNVHDNFMNNEITASKIDDGNNSKPLSPGWTDQTAYNAFGITTGMFNTTTMDDVYNYLFDDEDTPPNPKKE
notes: Negative control partner
With B1, the binding result in assay [1] and in assay [2] was “no binding” in each case.

B2: fusion protein AD-Fe65 (GAL4 activation domain fused to amino acids 152 to 708 of Fe65) (other)
chain: MDKAELIPEPPKKKRKVELGTAANFNQSGNIADSSLSFTFTNSSNGPNLITTQTNSQALSQPIASSNVHDNFMNNEITASKIDDGNNSKPLSPGWTDQTAYNAFGITTGMFNTTTMDDVYNYLFDDEDTPPNPKKEIEFKAAGEAEEEEEDDDDEEEEEDLSSPPGLPEPLESVEAPPRPQALTDGPREHSKSASLLFGMRNSAASDEDSSWATLSQGSPSYGSPEDTDSFWNPNAFETDSDLPAGWMRVQDTSGTYYWHIPTGTTQWEPPGRASPSQGSSPQEESQLTWTGFAHGEGFEDGEFWKDEPSDEAPMELGLKEPEEGTLTFPAQSLSPEPLPQEEEKLPPRNTNPGIKCFAVRSLGWVEMTEEELAPGRSSVAVNNCIRQLSYHKNNLHDPMSGGWGEGKDLLLQLEDETLKLVEPQSQALLHAQPIISIRVWGVGRDSGRDFAYVARDKLTQMLKCHVFRCEAPAKNIATSLHEICSKIMAERRNARCLVNGLSLDHSKLVDVPFQVEFPAPKNELVQKFQVYYLGNVPVAKPVGVDVINGALESVLSSSSREQWTPSHVSVAPATLTILHQQTEAVLGECRVRFLSFLAVGRDVHTFAFIMAAGPASFCCHMFWCEPNAASLSEAVQAACMLRYQKCLDARSQASTSCLPAPPAESVARRVGWTVRRGVQSLWGSLKPKRLGAHTP
notes: also called pRB34
For B2, the binding result in assay [3] is recorded as “no binding”.

Source of the values: patent US20090005253A1 (AVENTIS PHARMA S A, published 2009).
